{"source": "patent US20120164123", "proteins": {"B1": {"name": "arginine-specific mono-ADP-ribosyltransferase-1 (ART1), mART1 released from transfected NMU cells (protein)", "chain": "QSYSISQLDIFSQETPLDMAPASFDDQYAGCLADMTAALPDLNHSEFQANKVYADGWAQANNQWQERRAWGSVWGSLPPSPPGFRDEHGVALLAYTANSPLHKEFNAAVREAGRSRAHYLHHFSFKTLHFLLTEALQLLRSHRSRGCQQVYRGVHGLRFRPAGPGATVRLGGFASASLKNVAAQQFGEDTFFGIWTCLGAPIRGYSFFPEEEEVLIPPFETFQVINTSRPTQGPARIYLRALGKRSTYNCEYIKEKKCRSGPCWLGSS"}}, "target": "human neutrophil peptide-1 (HNP-1)", "sequence (chain, as listed by the source)": "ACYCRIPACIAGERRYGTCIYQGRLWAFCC"}
{"protein": "B1", "values": [{"measurement": "ADP-ribosylation of HNP-1 by ART1 in vitro (RP-HPLC and MS of the reaction products)", "value": "HNP-1 was ADP-ribosylated in vitro using purified ART1"}]}
